# According to patent publication US20210122813A1 (Kyowa Kirin, published 2021):
# Substitutions are numbered along the chain they refer to.
# B1: 18C1 chimeric antibody (antibody, V domains shown)
# VH: QVQLKETGPDLVQLTQTLSITCTVSGFSLTTYNVHWVRQPPGKGLEWMGTMWNGGGIDYNSAFKSRLSISRDTSKSQVFLKMNSLQTDDTAKYFCARLGYYVDYWGHGIMVTVSS
# VL: QFVLIQSNSMSTSLGSTVKLSCKRSTGNIGSSYVYWYQQHEGRSPTTMIYDGDKRPDGVPDRFSGSIDSSSNSAFLTINNVQIEDEAIYFCQSFSSGIKFIFGGGTKLTVL
# notes: also called ch18C1 antibody; ch18C1
# B2: 11H10 chimeric antibody (antibody, V domains shown)
# VH: B1 VH with T50A, I57T, G99A, Y100E, Y101G, V102F, H107Q, I109V
# VL: DTVMTQSPASMSTSVGERVTVNCKASQSVGTVVAWFQQKPGQSPKRLIYLATNRHTGVPDRFTGSGFGRDFTLTISNVEAEDLAVYYCLQYGSIPFTFGSGTKLEIK
# notes: also called ch11H10 antibody
# B3: 12H3 chimeric antibody (antibody, V domains shown)
# VH: B1 VH with T30S, T50A, D58N, L98F, Y101G, V102F, H107Q, I109V
# VL: ETVMTQSPTSMSTSIGERVTLNCKASQSVGINVDWYQRTPGQSPKLLIHGASNRHTGVPDRFTGSGFGRDFTLTISNVEAEDLTIYYCLQYGSIPLTFGAGTKLELI
# notes: also called ch12H3 antibody
# B4: VLres04HVmut04 (antibody, V domains shown)
# VH: QVQLQESGPDLVQPSQTLDITCTVSGFSLTTYNVHWVRQPPGKGLEWMGTMWNGGGIDYNSAFKSRLAISRDTSKNEVFLKMDSLQTDDTAKYFCARLGYYVDYWGQGILVTVSS
# VL: B1 VL with V3A, N8D, L14A, F75S, N80D, I88V
# notes: Humanized 18C1 antibody; also called VLres04HVmut04 antibody; hz18C1 antibody
# B5: VLres02HVmut08 (antibody, V domains shown)
# VH: B4 VH with Q13K, S65D, A68T, E77Q, K92V
# VL: B1 VL with N8D, L14A, F75S, N80D, I88V
# notes: Humanized 18C1 antibody; also called hz18C1 antibody; anti-BMP10 humanized antibody
# B6: VLres14HVmut07 (antibody, V domains shown)
# VH: B4 VH with S65D, E77Q, F79S
# VL: B1 VL with N8D, L14A, N80D, I88V
# notes: as for B5
# B7: VLres04VHres16 (antibody, V domains shown)
# VH: B4 VH with Q5K, S7T, S15T, N76S, L110M
# VL: B1 VL with V3A, N8D, L14A, F75S, N80D, I88V
# notes: Humanized 18C1 antibody; also called VLres04VHres16 antibody; hz18C1 antibody
# B8: VLres16HVmut10 (antibody, V domains shown)
# VH: B4 VH with S65D, K92V
# VL: B1 VL with V3A, N8D, L14A, N80D, I88V
# notes: as for B5
# B9: VLres10HVmut04 (antibody, V domains shown)
# VH: B4 VH
# VL: B1 VL with N8D, L14A, F75S, I88V
# notes: as for B5
# B10: VLres08HVmut08 (antibody, V domains shown)
# VH: B4 VH with Q13K, S65D, A68T, E77Q, K92V
# VL: B1 VL with V3A, N8D, L14A, F75S, N80D, I83V
# notes: as for B5
# B11: VLres10HVmut10 (antibody, V domains shown)
# VH: B4 VH with S65D, K92V
# VL: B1 VL with N8D, L14A, F75S, I88V
# notes: Humanized 18C1 antibody; also called VLres10HVmut10 antibody; hz18C1 antibody
# B12: VLres08HVmut04 (antibody, V domains shown)
# VH: B4 VH
# VL: B1 VL with V3A, N8D, L14A, F75S, N80D, I83V
# notes: as for B5
# B13: VLres14HVmut10 (antibody, V domains shown)
# VH: B4 VH with S65D, K92V
# VL: B1 VL with N8D, L14A, N80D, I88V
# notes: Humanized 18C1 antibody; also called VLres14HVmut10 antibody; hz18C1 antibody
# B14: VLres02HVmut07 (antibody, V domains shown)
# VH: B4 VH with S65D, E77Q, F79S
# VL: B1 VL with N8D, L14A, F75S, N80D, I88V
# notes: as for B5
# B15: VLres14VHres16 (antibody, V domains shown)
# VH: B4 VH with Q5K, S7T, S15T, N76S, L110M
# VL: B1 VL with N8D, L14A, N80D, I88V
# notes: Humanized 18C1 antibody; also called VLres14VHres16 antibody; hz18C1 antibody
# B16: VLres07VHres16 (antibody, V domains shown)
# VH: B4 VH with Q5K, S7T, S15T, N76S, L110M
# VL: B1 VL with V3A, N8D, K19T, F75S, N80D, I83V
# notes: Humanized 18C1 antibody; also called VLres07VHres16 antibody; hz18C1 antibody
# B17: VLres10HVmut08 (antibody, V domains shown)
# VH: B4 VH with Q13K, S65D, A68T, E77Q, K92V
# VL: B1 VL with N8D, L14A, F75S, I88V
# notes: as for B5
# B18: VLres08VHres16 (antibody, V domains shown)
# VH: B4 VH with Q5K, S7T, S15T, N76S, L110M
# VL: B1 VL with V3A, N8D, L14A, F75S, N80D, I83V
# notes: Humanized 18C1 antibody; also called VLres08VHres16 antibody; hz18C1 antibody
# B19: VLres06HVmut02 (antibody, V domains shown)
# VH: B4 VH with Q13K, A68T, E77Q
# VL: B1 VL with N8D, L14A, F75S, N80D, I83V
# notes: as for B5
# B20: VLres06HVmut10 (antibody, V domains shown)
# VH: B4 VH with S65D, K92V
# VL: B1 VL with N8D, L14A, F75S, N80D, I83V
# notes: as for B5
# B21: VLres07HVmut10 (antibody, V domains shown)
# VH: B4 VH with S65D, K92V
# VL: B1 VL with V3A, N8D, K19T, F75S, N80D, I83V
# notes: Humanized 18C1 antibody; also called VLres07HVmut10 antibody; hz18C1 antibody
# B22: VLres10HVmut02 (antibody, V domains shown)
# VH: B4 VH with Q13K, A68T, E77Q
# VL: B1 VL with N8D, L14A, F75S, I88V
# notes: Humanized 18C1 antibody; also called VLres10HVmut02 antibody; hz18C1 antibody
# B23: VLres16VHres16 (antibody, V domains shown)
# VH: B4 VH with Q5K, S7T, S15T, N76S, L110M
# VL: B1 VL with V3A, N8D, L14A, N80D, I88V
# notes: Humanized 18C1 antibody; also called VLres16VHres16 antibody; hz18C1 antibody
# B24: VLres10VHres16 (antibody, V domains shown)
# VH: B4 VH with Q5K, S7T, S15T, N76S, L110M
# VL: B1 VL with N8D, L14A, F75S, I88V
# notes: Humanized 18C1 antibody; also called VLres10VHres16 antibody; hz18C1 antibody
# B25: VLres14HVmut08 (antibody, V domains shown)
# VH: B4 VH with Q13K, S65D, A68T, E77Q, K92V
# VL: B1 VL with N8D, L14A, N80D, I88V
# notes: as for B5
# B26: VLres16HVmut07 (antibody, V domains shown)
# VH: B4 VH with S65D, E77Q, F79S
# VL: B1 VL with V3A, N8D, L14A, N80D, I88V
# notes: as for B5
# Target: T1, human BMP10 mature dimer (manufactured by R & D Systems, Inc., Cat #2926-BP) (human, UniProt O95393 317-424)
# T1 construct: Bought product; also called human mature BMP10; mature BMP10
# T1 sequence: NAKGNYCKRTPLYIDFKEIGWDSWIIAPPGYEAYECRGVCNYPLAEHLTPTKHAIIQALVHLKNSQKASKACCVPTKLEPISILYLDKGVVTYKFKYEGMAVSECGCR
# Test: SPR (Biacore T100), antibody captured by anti-human IgG, human BMP10 mature dimer as analyte
# Method: (§1) Further, subsequently, human mature BMP10 prepared at 5 concentrations by 3-fold serial dilution from 300 ng/mL was added thereto at a flow rate of 30 μL/min, and a binding reaction was monitored for 1 minute and a dissociation reaction was monitored for 30 minutes. The obtained sensorgram was analyzed using Bia Evaluation Software (manufactured by GE Healthcare Bio-Sciences Corporation), and the kinetic constant of each antibody was calculated.
row,Kd [pM],Molecule
1,2.62,B1
2,6.26,B2
3,11.8,B3

# Target: T1, human BMP10 mature dimer (manufactured …)
# Test: as above
# Remark: another data set of the same source
# Method: (§2) The binding activity of the anti-BMP10 antibody was measured as follows. An anti-human IgG antibody was immobilized on a CMS sensor chip (manufactured by GE Healthcare Bio-Sciences, Inc., BR100530) using Human Antibody Capture Kit (manufactured by GE Healthcare Bio-Sciences Corporation, Cat #BR-1008-39) according to the attached protocol. To a flow cell in which the anti-human IgG antibody was immobilized, the antibody prepared at 5 μg/mL was added at a flow rate of 10 μL/min for 10 seconds.
# as §1, with “Subsequently, human” for “Further, subsequently, human”, “from the 100” for “from 300”, “for 10” for “for 30”, “calculated. The calculated association rate constant (ka), dissociation rate constant (kd), and dissociation constant [kd/ka=KD] of each antibody are shown in Table 4.” for “calculated.”
row,Kd [pM],Molecule
1,2.62,B1
2,3.19,B4
3,3.05,B5
4,2.99,B6
5,3.21,B7
6,2.88,B8
7,3.2,B9
8,2.99,B10
9,2.19,B11
10,2.88,B12
11,2.84,B13
12,2.97,B14
13,3.3,B15
14,3.11,B16
15,3.06,B17
16,3.25,B18
17,3.37,B19
18,2.94,B20
19,2.69,B21
20,3.41,B22
21,3.69,B23
22,3.57,B24
23,2.71,B25
24,3.19,B26

# Target: T1, human BMP10 mature dimer (manufactured …)
# Test: SPR (Biacore T100), antibody captured by anti-human IgG, human BMP10 mature dimer as analyte; 100 ng/mL top concentration, 10 minutes dissociation (Example 13, Table 4)
# Method: as §2
# as §1, with “Subsequently, human” for “Further, subsequently, human”, “from the 100” for “from 300”, “for 10” for “for 30”, “calculated. The calculated association rate constant (ka), dissociation rate constant (kd), and dissociation constant [kd/ka=KD] of each antibody are shown in Table 4.” for “calculated.”
row,kon [M⁻¹ s⁻¹],Molecule
1,3.88e+07,B1

# Target: human BMP10 mature dimer (manufactured by R & D Systems, Inc., Cat #2926-BP) (human) (UniProt O95393)
# Test: SPR (Biacore T100), antibody captured by anti-mouse IgG, human BMP10 mature dimer as analyte
row,Kd [pM],Molecule
1,33.1,"MAB2926 (clone No. 462732, R & D Systems, Inc.) (antibody)"
